Read-outs that look alike come from different tables or passages of the source.
B1: human syntenin-1 PDZ tandem (PDZ1-PDZ2), residues 113-276 (domain or fragment, UniProt O00560 113-276, looked up)
chain: REVILCKDQDGKIGLRLKSIDNGIFVQLVQANSPASLVGLRFGDQVLQINGENCAGWSSDKAHKVLKQAFGEKITMTIRDRPFERTITMHKDSTGHVGFIFKNGKITSIVKDSSAARNGLLTEHNICEINGQNVIGLKDSQIADILSTSGTVVTITIMPAFIFE
B2: human syntenin-1 PDZ tandem (PDZ1-PDZ2), residues 113-273 (domain or fragment, UniProt O00560 113-273, looked up)
chain: REVILCKDQDGKIGLRLKSIDNGIFVQLVQANSPASLVGLRFGDQVLQINGENCAGWSSDKAHKVLKQAFGEKITMTIRDRPFERTITMHKDSTGHVGFIFKNGKITSIVKDSSAARNGLLTEHNICEINGQNVIGLKDSQIADILSTSGTVVTITIMPAF

How the values were obtained:
[1] = target: the molecule itself; assay: crystal structure
[2] = target: the molecule itself; assay: crystal structure; remark: listed apart in the source

| Protein | binding result [1] | binding result [2] |
| --- | --- | --- |
| B1 | binds | – |
| B2 | – | binds |

Reference: article doi:10.1101/2025.05.22.655525 (bioRxiv, 2025)
